From patent CN116472284A

What was measured:
[1] = biological target: SARS-CoV-2 spike ectodomain, prefusion-stabilised trimer (刺突 S2P) (SARS-CoV-2); experiment: SPR, captured spike S2P
[2] = biological target: SARS-CoV-2 spike ectodomain, prefusion-stabilised trimer (刺突 S2P) (SARS-CoV-2); experiment: SPR, captured spike S2P, biphasic dissociation, fast phase kd1
[3] = biological target: SARS-CoV-2 spike ectodomain, prefusion-stabilised trimer (刺突 S2P) (SARS-CoV-2); experiment: SPR, captured spike S2P, biphasic dissociation, slow phase kd2
[4] = biological target: SARS-CoV-2 spike ectodomain, prefusion-stabilised trimer (刺突 S2P) (SARS-CoV-2)
[5] = biological target: SARS-CoV-2 spike ectodomain, prefusion-stabilised trimer (刺突 S2P) (SARS-CoV-2); remark: listed apart in the source
[6] = biological target: SARS-CoV-2 spike ectodomain, prefusion-stabilised trimer (刺突 S2P) (SARS-CoV-2); experiment: binding kinetics (SPR), Fig. 6A

B1: Nb6-bi (bivalent Nb6 with a 15 amino acid linker) (VHH)
chain: QVQLVESGGGLVQAGGSLRLSCAASGIIFGRNAMGWYRQAPGKERELVAGITRRGSITYYADSVKGRFTISRDNAKNTVYLQMNSLKPEDTAVYYCAADPASPAPGDYWGQGTQVTVSSGGGGSGGGGSGGGGSQVQLVESGGGLVQAGGSLRLSCAASGIIFGRNAMGWYRQAPGKERELVAGITRRGSITYYADSVKGRFTISRDNAKNTVYLQMNSLKPEDTAVYYCAADPASPAPGDYWGQGTQVTVSS
fold gain in KD against monovalent Nb6 [1]: 750 fold
koff [2]: 0.027 s⁻¹
koff [3]: 0.00031 s⁻¹

B2: Nb6 (VHH)
VHH: QVQLVESGGGLVQAGGSLRLSCAASGIIFGRNAMGWYRQAPGKERELVAGITRRGSITYYADSVKGRFTISRDNAKNTVYLQMNSLKPEDTAVYYCAADPASPAPGDYWGQGTQVTVSS
EC50 [4]: 359 nM
IC50 [5]: 370 nM
Kd [1]: 210 nM
koff [1]: 0.056 s⁻¹
Kd [6]: 210 nM
